Literature values in paper PMC8242001.

Target: eIF4E (Saccharomyces cerevisiae) (UniProt P07260)
Assay: ITC

Chain of UniProt P07260 (P07260 whole entry): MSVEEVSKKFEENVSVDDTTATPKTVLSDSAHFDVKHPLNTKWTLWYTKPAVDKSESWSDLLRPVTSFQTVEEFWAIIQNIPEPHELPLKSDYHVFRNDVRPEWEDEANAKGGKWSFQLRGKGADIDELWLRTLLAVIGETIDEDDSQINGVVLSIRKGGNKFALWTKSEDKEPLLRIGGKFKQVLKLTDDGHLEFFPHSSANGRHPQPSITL

- Kd: 20 nM
Substance: Caf20 (from UniProt P12962)
